Data published in patent US6379950 (THOMAS JEFFERSON UNIVERSITY, dated 2002).
fmk = not defined here

T1: C-terminus of lamin A, P02545
T1 chain: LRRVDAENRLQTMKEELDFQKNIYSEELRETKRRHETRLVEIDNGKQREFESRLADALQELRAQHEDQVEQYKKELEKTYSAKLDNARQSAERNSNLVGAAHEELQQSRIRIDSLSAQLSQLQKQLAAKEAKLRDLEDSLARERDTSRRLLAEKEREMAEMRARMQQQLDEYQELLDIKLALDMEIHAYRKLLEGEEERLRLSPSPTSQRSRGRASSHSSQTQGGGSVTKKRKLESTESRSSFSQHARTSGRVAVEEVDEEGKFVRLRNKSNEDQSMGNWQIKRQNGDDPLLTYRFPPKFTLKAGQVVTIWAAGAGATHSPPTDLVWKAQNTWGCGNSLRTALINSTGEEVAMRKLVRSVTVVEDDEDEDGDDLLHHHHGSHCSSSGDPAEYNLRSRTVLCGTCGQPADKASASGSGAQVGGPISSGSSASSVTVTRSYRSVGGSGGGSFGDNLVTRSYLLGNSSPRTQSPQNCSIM

T2: rev-caspase-3 (human, UniProt P42574 1-175, limits assumed)
T2 sequence: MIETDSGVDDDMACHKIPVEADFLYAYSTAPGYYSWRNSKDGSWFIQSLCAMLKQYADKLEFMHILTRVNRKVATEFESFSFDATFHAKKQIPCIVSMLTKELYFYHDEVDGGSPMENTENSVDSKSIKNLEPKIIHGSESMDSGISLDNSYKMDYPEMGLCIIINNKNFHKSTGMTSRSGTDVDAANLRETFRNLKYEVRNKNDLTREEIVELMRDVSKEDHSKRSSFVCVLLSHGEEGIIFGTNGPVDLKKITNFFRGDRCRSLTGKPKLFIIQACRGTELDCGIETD


Columns and labels:
[1] = biological target: poly(ADP) ribose polymerase (PARP), P09874
Sequence of poly(ADP) ribose polymerase (PARP), P09874 (P09874 whole entry, looked up): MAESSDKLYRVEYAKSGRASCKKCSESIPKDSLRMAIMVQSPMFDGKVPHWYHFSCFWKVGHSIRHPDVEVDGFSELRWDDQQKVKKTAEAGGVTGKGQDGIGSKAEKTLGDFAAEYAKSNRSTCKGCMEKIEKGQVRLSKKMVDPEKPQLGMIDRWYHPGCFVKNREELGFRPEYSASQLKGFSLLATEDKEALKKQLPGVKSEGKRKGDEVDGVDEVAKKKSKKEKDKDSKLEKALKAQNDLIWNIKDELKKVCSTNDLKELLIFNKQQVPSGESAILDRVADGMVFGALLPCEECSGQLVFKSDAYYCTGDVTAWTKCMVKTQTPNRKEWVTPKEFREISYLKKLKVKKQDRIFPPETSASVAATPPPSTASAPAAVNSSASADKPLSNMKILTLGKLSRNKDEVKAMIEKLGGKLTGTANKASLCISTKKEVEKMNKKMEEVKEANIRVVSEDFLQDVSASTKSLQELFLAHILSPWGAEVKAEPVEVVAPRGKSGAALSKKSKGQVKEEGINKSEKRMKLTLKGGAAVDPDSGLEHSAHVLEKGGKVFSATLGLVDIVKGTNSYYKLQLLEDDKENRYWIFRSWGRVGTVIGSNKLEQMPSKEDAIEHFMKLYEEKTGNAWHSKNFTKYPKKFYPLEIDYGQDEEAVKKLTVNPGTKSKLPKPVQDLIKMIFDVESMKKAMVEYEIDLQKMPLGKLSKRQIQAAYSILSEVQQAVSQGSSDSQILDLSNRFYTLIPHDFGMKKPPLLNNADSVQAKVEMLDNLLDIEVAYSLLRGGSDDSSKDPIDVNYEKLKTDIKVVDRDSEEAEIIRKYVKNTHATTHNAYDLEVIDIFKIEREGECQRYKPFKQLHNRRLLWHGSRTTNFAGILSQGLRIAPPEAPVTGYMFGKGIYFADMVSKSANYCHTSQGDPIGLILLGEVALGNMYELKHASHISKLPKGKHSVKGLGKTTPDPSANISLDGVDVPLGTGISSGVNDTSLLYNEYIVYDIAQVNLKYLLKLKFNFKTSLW

[2] = biological target: T1, C-terminus of lamin A, P02545
rev-caspase-3 = biological target: T2, rev-caspase-3; test: cell-based or functional assay

| Binder | substrate cleavage (bacterial extract incubated with purified PARP, Western blot) [1] | substrate cleavage (bacterial extract incubated with 35S-labelled lamin A C-terminus, autoradiography) [2] | amount of inhibitor required for complete inhibition, relative to DEVD-CHO (rev-caspase-3) |
| --- | --- | --- | --- |
| caspase-3 (wild type) (protein) MENTENSVDSKSIKNLEPKIIHGSESMDSGISLDNSYKMDYPEMGLCIIINNKNFHKSTGMTSRSGTDVDAANLRETFRNLKYEVRNKNDLTREEIVELMRDVSKEDHSKRSSFVCVLLSHGEEGIIFGTNGPVDLKKITNFFRGDRCRSLTGKPKLFIIQACRGTELDCGIETDSGVDDDMACHKIPVDADFLYAYSTAPGYYSWRNSKDGSWFIQSLCAMLKQYADKLEFMHILTRVNRKVATEFESFSFDATFHAKKQIPCIVSMLTKELYFYH | Both caspase-3 variants (rev and WT), but not caspase-6 variants efficiently cleaved PARP | both caspase-6 variants, but not caspase-3 variants efficiently cleaved lamin |  |
| rev-caspase-6 (protein) MVEIDAASVYTLPAGADFLMCYSVAEGYYSHRETVNGSWYIQDLCEMLGKYGSSLEFTELLTLVNRKVSQRRVDFCKDPSAIGKKQVPCFASMLTKKLHFFPKSNLEHHHHHHVEIDGGSPMSSASGLRRGHPAGGEENMTETDAFYKREMFDPAEKYKMDHRRRGIALIFNHERFFWHLTLPERRGTCADRDNLTRRFSDLGFEVKCFNDLKAEELLLKIHEVSTVSHADADCFVCVFLSHGEGNHIYAYDAKIEIQTLTGLFKGDKCHSLVGKPKIFIIQACRGNQHDVPVIPLDVVD | Both caspase-3 variants (rev and WT), but not caspase-6 variants efficiently cleaved PARP | both caspase-6 variants, but not caspase-3 variants efficiently cleaved lamin |  |
| caspase-6 (wild type) (protein) MSSASGLRRGHPAGGEENMTETDAFYKREMFDPAEKYKMDHRRRGIALIFNHERFFWHLTLPERRGTCADRDNLTRRFSDLGFEVKCFNDLKAEELLLKIHEVSTVSHADADCFVCVFLSHGEGNHIYAYDAKIEIQTLTGLFKGDKCHSLVGKPKIFIIQACRGNQHDVPVIPLDVVDNQTEKLDTNITEVDAASVYTLPAGADFLMCYSVAEGYYSHRETVNGSWYIQDLCEMLGKYGSSLEFTELLTLVNRKVSQRRVDFCKDPSAIGKKQVPCFASMLTKKLHFFPKSN | Both caspase-3 variants (rev and WT), but not caspase-6 variants efficiently cleaved PARP | both caspase-6 variants, but not caspase-3 variants efficiently cleaved lamin |  |
| rev-caspase-3 (protein) MIETDSGVDDDMACHKIPVEADFLYAYSTAPGYYSWRNSKDGSWFIQSLCAMLKQYADKLEFMHILTRVNRKVATEFESFSFDATFHAKKQIPCIVSMLTKELYFYHDEVDGGSPMENTENSVDSKSIKNLEPKIIHGSESMDSGISLDNSYKMDYPEMGLCIIINNKNFHKSTGMTSRSGTDVDAANLRETFRNLKYEVRNKNDLTREEIVELMRDVSKEDHSKRSSFVCVLLSHGEEGIIFGTNGPVDLKKITNFFRGDRCRSLTGKPKLFIIQACRGTELDCGIETD | Both caspase-3 variants (rev and WT), but not caspase-6 variants efficiently cleaved PARP | both caspase-6 variants, but not caspase-3 variants efficiently cleaved lamin |  |
| {code z}-Val-Ala-Asp-fmk (reading uncertain; also: printed as z-VAD-fmk) [z-VAD-fmk] |  |  | ~10 fold |
